Target: protein phosphatase-1 alpha catalytic subunit (recombinant PP1α) (UniProt P62139)
Sequence of UniProt P62139 (P62139 whole entry): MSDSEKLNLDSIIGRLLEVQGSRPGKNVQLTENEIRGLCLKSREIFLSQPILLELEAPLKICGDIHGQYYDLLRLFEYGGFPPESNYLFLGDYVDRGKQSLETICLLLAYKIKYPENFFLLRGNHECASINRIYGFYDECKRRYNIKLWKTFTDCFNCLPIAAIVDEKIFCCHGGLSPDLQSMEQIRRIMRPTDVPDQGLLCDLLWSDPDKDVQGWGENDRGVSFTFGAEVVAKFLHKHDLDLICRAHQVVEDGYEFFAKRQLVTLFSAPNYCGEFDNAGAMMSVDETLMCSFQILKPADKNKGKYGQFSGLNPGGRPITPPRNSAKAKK

B1: Inh3(1–47) (domain or fragment)
chain: MAEAGAGLSETVTETTVTVTTEPENRSLTIKLRKRKPEKKVEWTSDT
- fold increase in IC50 of inhibition of PP1 activity, against Inh3(1–64): 3.5 fold
